Test results published in the DeepSol protein solubility set.

experiment: soluble on expression in E. coli; label from the status in PepcDB or PDB records

| Sequence | soluble on expression in E. coli |
| --- | --- |
| MGSDKIHHHHHHMKTIRIGSGAGYAGDRIEPAVELAQKGDIQYLVFECLAERTIAIGQKQKQQNPEKGYNELLADRMHAVLPLCLEKGIKIITDMGSANPVAAGQRVLEIAKELGADKLKIAIVTGDDVHSVLIAQDSKLDEIGLPISRCGKDILSANAYLGADALVEALRQGADVIIAGRVSDPSLFLSAMMYEFDWAADDWDRLGKGTCLGHLLECAGQITGGYYADPGVKDIPNLDRLGFPIAEITEDGSAVITKVEGSGGCVCVDTCKEQLLYEIHRPDSYITPDVIADFSHVTFTQDGENRVRVQGATGREKTGTLKVSVGYQDGFIGEGEISYAGPGAVARGRLALDIVKGRFALCQLDLQEVRYDLIGVDALHGAQRSQSSEPYEVRARVAARCTSRAQAVKVGNEVETLYTNGPAGGGGVNKSVKEILAMDSTLLSRACVTPAVDYLEIK | not soluble |
| GLIIGPEEDYDPGYFNNESDIIFQDLEKLKSHPAYLVVFLRYILSQADPGPLLFYLCSEVYQQTNPKDSRSLGKDIWNIFLEKNAPLRVKIPEMLQAEIDLRLRNNEDPRNVLCEAQEAVMLEIQEQINDYRSKRTLGLGSLYGENDLLGLDGDPLRERQMAEKQLAALGDILSKYEEDRSAPMDFAVNTFMSHAGIRLRESR | soluble |
| MLDVKSQDISIPEAVVVLCTAPDEATAQDLAAKVLAEKLAACATLLPGATSLYYWEGKLEQEYEVQMILKTTVSHQQALIDCLKSHHPYQTPELLVLPVTHGDTDYLSWLNASLR | not soluble |
| MAKISEIMLLQQPEQPALAIEVQTYMKGMSQAIGENFVRIDSLFKKQGEVTTDIPFVEYPDFESLTEDRIKMIIGLKSSKPLQGDEKIQSVILPARRIVVCLHRGNYNELAQLYNEMTEWIKTNGYKASGTSIEYYYSNPDVPEEEHVTRVEMPLL | not soluble |
| KGKKLAVIAVAEHEFNQSENNGPGSAPLDPVDNYYQIREAQAKADIVIVTIHGGNEHFHYPRPGLRKLCKHYIDLGVNAVICHHPHVPGAYEIYNGRPIVYSLGNFVFDTLSMVHEWDVGYMAKLKFNEVD | not soluble |
| GPQLDHVDIDLTDKAAMQDGARTFANYCMGCHSAKFQRYERVATDLGIPADLMMEKLVFTGAKIGDHMDIGMKPADAKTWFGAAPPDLTLVARVRGTDWLYSYLRSFYEDPKRPWGVNNVIFPNVGMPNVLAPLQGRQVIGCKQVQVVEDGKKQFDPLTGTPLTHEACDQLTVVPKTGELNEAQFDEKVKNLVTFLAYSANPNKLASERIG | not soluble |
| KKVYLIHGWGANRHAFDDLMPRLPATWPVSAVDLPGHGDAPFAQPFDIEAAADGIAAQIDTSADILGWSLGGLVALYLAARHPDKVRSLCLTASFARLTAAEDYPEGLAAPALGKMVGAFRTDYAKHIKQFLQLQLLHTPDAAEIIGRILPDLARCGTPQALQEALDAAERADARHLLDKIDVPVLLVFGGKDAITPLRMGEYLHRHLKGSRLVVMEKAAHAPFLSHAEAFAALCRDFVEG | not soluble |
| MTKQVKIYHNPRCSKSRETLNLLKENGVEPEVVLYLETPADAATLRDLLKILGMNSARELMRQKEDLYKELNLADSSLSEEALIQAMVDNPKLMERPIVVANGKARIGRPPEQVLEIVG | not soluble |
| MGSDKIHHHHHHMKLSFEVLEALDAIDRAGTFAEAAVLIHRVPSALSYLVQKAESDLGVILFDRSGRRAQLTEAGRLLVEDGRRLLQAGRELESKVRGVHAGWEAELRLCLDEILPLPSLWPHVRAFYDMELTTRLRLSTEVLGGVWDALVTGRADIAIGAAGEPPHAPNIAARPIGLLRHVFVVAPHHPLAAVEQPLDSDTISSHRGVIISDTSRALEPRSVAIHDGQPVIIVPTLAAKLDLLCEGMAVGMLPAPVVEEAIRQGKLVERRVIGVRDHTTCYLGWREDKTGRALKWWINRLDQIDLISTLFSTRGVAA | not soluble |
| QDFPQSLIIDSFLVNDGKTRGLNLHLDRFRTACLEHGYAHHEQLDAFFAEALRSIPATGQWFPRLEATPTELRIALRPAPQLRGTTTLTSVAAVRPTPKYKGLDLDYLAELRCSSTTDDALLVTPAGVIAETTTAAIIAWDGTKWMSMAPARLESVTESLLINSARAQGEMVVTAALTVPEAQKLNLWAVNSLHGVTPVTHIDEVALPSNPQRSALLRGWLSQSEENIAQV | not soluble |
| HSDPARRGQLSVCDSISEWVTAADKKTAVDMSGGTVTVLEKVPVSKGQLKQYFYETKCNPMGYTKEGCRGIDKRHWNSQCRTTQSYVRALTMDSKKRIGWRFIRIDTSCVCTLTIKRGR | soluble |
| MSLGGNGREKDHASELRSIFSLKKIADAVNGYEEAKYVVFGIPFDNTSSYRRGSKYAPDSIRGAYVNLESYEYSYGIDLLASGMADLGDMEESEDVEYVIDTVESVVSAVMSDGKIPIMLGGEHSITVGAVRALPKDVDLVIVDAHSDFRSSYMGNKYNHACVTRRALDLLGEGRITSIGIRSVSREEFEDPDFRKVSFISSFDVKKNGIDKYIEEVDRKSRRVYISVDMDGIDPAYAPAVGTPEPFGLADTDVRRLIERLSYKAVGFDIVEFSPLYDNGNTSMLAAKLLQVFIASREKYYKEHIEGHHHHHH | soluble |
| MIHVGTCGFCEAREKYFKDFDAVEVQQTFYKVLQEKTLERWRKKAPEEFTFSIKAFQGVTHPSNSPTWRRSNVKPSKNVGLLRPTNEVLHYWRITLKEAKVLGARFILIQLPRSFKEGEESFENAEKFFNAIDRGDFEIGVELRGWSEKGVKRFVREFDVIDVTDPLLRIPLHKGSVNYYRLHGKYEGGKIIYNHSYSDEELKKIRERVLGWNVEESFVFFNNTSMCRDAKRFKLILDLH | soluble |
| MKTLLYQKVYDQLKLSIQEGKIPVGSKMPTENELMAQFDVSSITLKKALELLKKDGYISRRPRVGTFVINDSPNSEQIETRKFDKPLFGCIMTNFDDTFGTILLSGMLEHSDSKAHIIVKKSLGDTEREEEILQEFIEMNVAGILILPASSKFVSPTLLELASQKFPLVVIDRTLEGLPISSISSDNTEAGRIITEKLFELGHKHIGMITSTSPVSTLDSRVNGFIRGHASFHTAFHSDYVFREIESVMPNSTVSIQTDIDKIARFLETHPEITALVATEYNIALLIKQACNKLGKSIPTNLSVVCFDHPDNFFDTSAFQFTHIKQAQYEIGVKAVDMLLNQVLKPDTINKETLPPLLVEGDSVEPLKSTSK | not soluble |
| MGSDKIHHHHHHVPEQHICTYEYRLANPNPRPIVGRFQLNFTLDVNGCESGTPVLYLEHVQVHATVRYLKRGDLKLTLFSPSGTRSVLLPPRPQDFNANGFHKWPFLSVQQWGEDPRGTWLLMVESVTTNPAATGTFHDWTLLLYGTADPAQSGDPVYSATPATSQGVLSRVHQLTSQILITIAIHLVVNA | not soluble |
| MGNGLAKCLIDGDTETFWHAKWQGGSDPLPYDIVIDMKQNIQIAQVELLPRGRGSNNPIKVVEFAASEDNVNWTPIGRFGFTNQDAALEYYVKSIKARYIRLTIPDDGGNSTVAAIRELDVKGTIINLEHHHHHH | not soluble |
| MGSDKIHHHHHHMTLRLHEYVEKESFNHPYTFVAAQTGLDEKTVRDIFNARAEFLGRWHRFETPRILGIDELYLNKRYRCILTNIEERTLLDLLATRRQNVVTNYLMKLKDRQKVEIVSMDMWNPYRAAVKAVPPQARIVVDKFHVVRMANDALERVRKGLRKELKPSQSRTLKGDRKILLKRAHEVSDRERLIMETWTGAFPQLLAAYEHKERFYGIWDATTRLQAEAALDEWIATIPKGQKEVWSDLVRAVGNWREETMTYFETDMPVTNAYTESINRLAKDKNREGRGYSFEVMRARMLYTTKHKKKAPTAKVSPFYKKTIGYGLPDFAEELNYGVDLSTI | not soluble |
| MAAAAARSTSPFEIRHAVTIAAPPEAVFDYVTNPKSWPEWLPSSHALECDDRPMGFGDTFHEHWSTRSGPVDLDWLVIACDRPLLWIGLTQTSFMGPVVVHYTFEAVDDGTRFTRILRNPARPKPPTAEMIERMSTEAELGLGNIKRIVERR | not soluble |
| MSLKKYTMNEMVDITKDMLNKRGVMIEDIARIVQKLQEKYNPNLPLSVCMENVEKVLNKREIIHAVLTGLALDQLAEQKLLPEPLQHLVETDEPLYGIDEIIPLSIVNVYGSIGLTNFGYLDKEKIGIIKELDESPDGIHTFLDDIVAALAAAAASRIAHTHQDLQDEEKEQDEKPVVSEGGSHHHHHH | soluble |
| GPGSMSSIEELKVVRLFRALNTMIQLCHDRGYVIRHPSAIAEAVQNPELYNNEEGLDHDWFLRHFVISPDRAARSIRAKQRGDGSSRSGPRREAKNEEDGGDADKPGEYDVAADEDEALRRAANGEWVCMRNAMRLTCSVDPRRATLASSVLTGAPTNKAPSSAPAVTAEPKDDDGDVPYAVAAAAVDAKSKEKAAKNALMVFFSGSPKLSMKEVHSFREKALKKKASSMIVVTNKIDPGVRMDVQELSGRMDEATGAELLSIQVFEEEALAFNVVRHETVPRHVALTPAEAEAFLAERKLNVAQLPRMQESDPLVQYLGLQRGSIVHITREGKQSGPYSMYRHVI | soluble |
| MISSMTGFGRSKVESDTFQITVEMKSVNHRFLEMSIRLPKQMMVFEDKIRKIIAQQVRRGRIEVSISIAGEGLVERKLSVNWSLLEQYQSMMEDIKGKFQLQDSITLEQLMAMPEVTAIEEIENVNEHFENSLYEAVRQAAHMLKTMRDGEGERLHKDIAYRLQEISNCVNAIIPHAPIVTQKYRERLENRLKELHNQDLDEQRLLTEVAIFAERCDIHEELVRLQSHLEQFRETLQIEEPVGRKMDFIVQEMHREINTIGSKANDLTISKYVVEMKNNLEKIREQVQNIE | not soluble |
| MSNDFTQAQAPPWRYGFLNLMRRVDVQLCTVPAGNTWQPRMEKFRLGQTPALTFAPREIASVGWQEGRLHISLYSLVLWGPNGPLPLHYTELARNRTESRR | not soluble |
| HHHHHHKVDLGGFAGLFDLKAAGFKDPLLASGTDGVGTKLKIAQLCNKHDTIGQDLVAMCVNDILAQGAEPLFFLDYFSCGKLDLSVTEAVVAGIAKACGKAGCALLGGETAEMPDMYPPGEYDLAGFAVGAMERDQKLPHLERITEGDVVVGIASSGLHSNGFSLVRKIVAKSSLQYSSPAPDGCGDQTLGDLLLTPTRIYSHSLLPVLRSGHVKAFAHITGGGLLENIPRVLPEKLGVDLDAQTWRIPRVFSWLQQEGHLSEEEMARTFNCGVGAVLVVSKEQTEQILRGIQQHKEEAWVIGSVVARAEGSPRVKVKNLIESMQINGSVLKN | soluble |
| EQVVARKKLEESESRFRALVNASSDVVYRMNADWTVMRELEGRDFLTPAGTAMADWVETYTYREDRALVKATAAAAIEGKRIFELEHRVLKADGTIGWTFSRAIPILDEQGNIIEWFGSAADIT | not soluble |
| MGSDKIHHHHHHMATSTTSTPHDAVFKQFLCHPDTARDFLEIHLPSTLRQICNLNTLRLESGSFIEEDLRPHYSDILWSLETSEGEGYIYVVIEHQSTPDAHMAFRLMRYAMAAMQRHLEAGHKTLPLVVPMLFYHGNRSPYPFSLCWLDEFADPVMARKLYATAFPLVDITVVPDDEIMRHRRVALLELIQKHIRQRDLMGLVEQLVALLVKGYANDTQLQSLFNYMMHTGDAARFNTFIRQVAMRIPQHKEKIMTIADRLRQEGHRNGLQQGKQEGQRLAALRIARSMLNDGFDRDTVLRVTGLAPADLASENH | not soluble |
